From patent EP4737479A1 (Bio-Thera Solutions, Ltd., dated 2026)

Target: T1, antigen 4-1BB (Sino Biological, Cat. No. 10041-H08H) (UniProt Q07011 24-186)
T1 construct: Bought protein used as SPR analyte; also called CD137
Assay: SPR (Biacore T200), sample captured on the chip by Fc, 4-1BB as analyte

T1 sequence (Q07011 24-186 limits assumed): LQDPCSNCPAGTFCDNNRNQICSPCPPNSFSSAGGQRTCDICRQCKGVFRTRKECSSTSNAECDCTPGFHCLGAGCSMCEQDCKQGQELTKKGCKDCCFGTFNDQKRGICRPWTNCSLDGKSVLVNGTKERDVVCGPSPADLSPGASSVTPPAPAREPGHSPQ

Kd: 3.22 nM
koff: 0.00159 s⁻¹
kon: 496000 M⁻¹ s⁻¹
B1: Urelumab (antibody, V domains shown)
VH: QVQLQQWGAGLLKPSETLSLTCAVYGGSFSGYYWSWIRQSPEKGLEWIGEINHGGYVTYNPSLESRVTISVDTSKNQFSLKLSSVTAADTAVYYCARDYGPGNYDWYFDLWGRGTLVTVSS
VL: EIVLTQSPATLSLSPGERATLSCRASQSVSSYLAWYQQKPGQAPRLLIYDASNRATGIPARFSGSGSGTDFTLTISSLEPEDFAVYYCQQRSNWPPALTFGGGTKVEIK
